Measurements from patent US20250084434A1 (KRIYA THERAPEUTICS, published 2025).

Biological target: IGF-1R, endogenous, on cultured cells (HT-1080, Colo205, peripheral blood fibrocytes) (human, UniProt P08069 31-1367)
Assay: cell-based or functional assay

IGF-1R, endogenous, on cultured cells (HT-1080, Colo205, peripheral blood fibrocytes), sequence (P08069 31-1367): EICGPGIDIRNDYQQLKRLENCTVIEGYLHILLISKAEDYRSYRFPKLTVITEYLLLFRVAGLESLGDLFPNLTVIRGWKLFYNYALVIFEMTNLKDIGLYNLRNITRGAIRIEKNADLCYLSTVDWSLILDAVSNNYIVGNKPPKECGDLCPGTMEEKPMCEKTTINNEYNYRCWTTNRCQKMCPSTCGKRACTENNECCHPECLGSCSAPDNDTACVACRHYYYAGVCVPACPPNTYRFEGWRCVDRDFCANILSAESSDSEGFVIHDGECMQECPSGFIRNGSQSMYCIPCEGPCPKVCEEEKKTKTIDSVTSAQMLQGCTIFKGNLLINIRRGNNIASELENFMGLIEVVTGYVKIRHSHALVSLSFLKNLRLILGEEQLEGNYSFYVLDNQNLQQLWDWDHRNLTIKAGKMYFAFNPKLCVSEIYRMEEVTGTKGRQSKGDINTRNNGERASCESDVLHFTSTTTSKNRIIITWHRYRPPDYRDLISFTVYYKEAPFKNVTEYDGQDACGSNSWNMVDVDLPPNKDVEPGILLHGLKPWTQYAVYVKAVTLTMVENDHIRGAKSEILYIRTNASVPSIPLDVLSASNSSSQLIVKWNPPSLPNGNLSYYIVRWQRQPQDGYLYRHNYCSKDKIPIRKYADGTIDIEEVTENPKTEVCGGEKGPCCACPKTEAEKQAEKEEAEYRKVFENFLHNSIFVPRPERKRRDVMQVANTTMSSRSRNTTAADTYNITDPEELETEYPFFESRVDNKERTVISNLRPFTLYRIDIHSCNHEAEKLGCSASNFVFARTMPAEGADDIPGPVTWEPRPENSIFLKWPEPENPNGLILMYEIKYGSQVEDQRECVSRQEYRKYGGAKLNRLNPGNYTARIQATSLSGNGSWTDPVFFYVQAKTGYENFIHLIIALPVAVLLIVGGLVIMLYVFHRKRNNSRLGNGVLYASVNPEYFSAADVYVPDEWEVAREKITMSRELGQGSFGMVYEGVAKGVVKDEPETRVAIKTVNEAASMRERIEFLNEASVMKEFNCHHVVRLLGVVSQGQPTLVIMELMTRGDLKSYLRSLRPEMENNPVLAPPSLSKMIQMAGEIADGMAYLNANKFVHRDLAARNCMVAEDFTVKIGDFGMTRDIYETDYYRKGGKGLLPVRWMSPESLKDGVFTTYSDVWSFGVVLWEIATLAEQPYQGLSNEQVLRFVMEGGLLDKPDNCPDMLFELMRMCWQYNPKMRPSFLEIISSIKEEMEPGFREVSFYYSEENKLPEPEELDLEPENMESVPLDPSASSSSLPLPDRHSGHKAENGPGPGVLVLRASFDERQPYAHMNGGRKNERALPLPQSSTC

B1: vectorized Teprotumumab (secreted from HEK-293 cells transfected with teprotumumab plasmid construct (antibody, V domains shown)
VH: QVELVESGGGVVQPGRSQRLSCAASGFTFSSYGMHWVRQAPGKGLEWVAIIWFDGSSTYYADSVRGRFTISRDNSKNTLYLQMNSLRAEDTAVYFCARELGRRYFDLWGRGTLVSVSS
VL: EIVLTQSPATLSLSPGERATLSCRASQSVSSYLAWYQQKPGQAPRLLIYDASKRATGIPARFSGSGSGTDFTLTISSLEPEDFAVYYCQQRSKWPPWTFGQGTKVESKR
reduction in IGF-1R activation (IGF-1R phosphorylation) by IGF in HT-1080 cells, MSD Insulin Signaling Panel (Phospho Protein): 4 fold
